# In IntAct's records for PubMed 28642151:
# B1: Serine protease HTRA3 (Homo sapiens), P83110-1 (parent)
# chain: MQARALLLAALAALALAREPPAAPCPARCDVSRCPSPRCPGGYVPDLCNCCLVCAASEGEPCGGPLDSPCGESLECVRGLCRCRWSHAVCGTDGHTYANVCALQAASRRALQLSGTPVRQLQKGACPLGLHQLSSPRYKFNFIADVVEKIAPAVVHIELFLRHPLFGRNVPLSSGSGFIMSEAGLIITNAHVVSSNSAAPGRQQLKVQLQNGDSYEATIKDIDKKSDIATIKIHPKKKLPVLLLGHSADLRPGEFVVAIGSPFALQNTVTTGIVSTAQREGRELGLRDSDMDYIQTDAIINYGNSGGPLVNLDGEVIGINTLKVTAGISFAIPSDRITRFLTEFQDKQIKDWKKRFIGIRMRTITPSLVDELKASNPDFPEVSSGIYVQEVAPNSPSQRGGIQDGDIIVKVNGRPLVDSSELQEAVLTESPLLLEVRRGNDDLLFSIAPEVVM
# partner: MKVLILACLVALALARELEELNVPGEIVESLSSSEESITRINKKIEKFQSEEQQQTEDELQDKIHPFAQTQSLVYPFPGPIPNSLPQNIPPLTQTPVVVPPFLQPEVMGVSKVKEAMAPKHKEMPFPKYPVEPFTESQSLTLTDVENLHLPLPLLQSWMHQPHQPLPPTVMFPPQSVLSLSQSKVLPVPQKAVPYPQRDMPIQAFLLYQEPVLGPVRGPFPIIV
# B2: Serine protease HTRA3 (Homo sapiens), P83110-1 (parent)
# chain: B1 chain
# Variants of: B1
# Conditions: with casb_bovin CSN2, P02666
row,effect of a mutation on the interaction,Variant
1,with no effect,MQARALLLAALAALALAREPPAAPCPARCDVSRCPSPRCPGGYVPDLCNCCLVCAASEGEPCGGPLDSPCGESLECVRGLCRCRWSHAVCGTDGHTYANVCALQAASRRALQLSGTPVRQLQKGACPLGLHQLSSPRYKFNFIADVVEKIAPAVVHIELFLRHPLFGRNVPLSSGSGFIMSEAGLIITNAHVVSSNSAAPGRQQLKVQLQNGDSYEATIKDIDKKSDIATIKIHPKKKLPVLLLGHSADLRPGEFVVAIGSPFALQNTVTTGIVSTAQREGRELGLRDSDMDYIQTDAIINYGNSGGPLVNLDGEVIGINTLKVTAGISFAIPSDRITRFLTEFQDKQIKDWKKRFIGIRMATITPSLVDALKASNPDFPEVSSGIYVAEVAPNSPSQRGGIQDGDIIVKVNGRPLVDSSELQEAVLTESPLLLEVRRGNDDLLFSIAPEVVM [R362A;E371A;Q389A]

# Variants of: B2
# Conditions: with xiap_human XIAP
row,effect of a mutation on the interaction,Variant
1,with no effect,MQARALLLAALAALALAREPPAAPCPARCDVSRCPSPRCPGGYVPDLCNCCLVCAASEGEPCGGPLDSPCGESLECVRGLCRCRWSHAVCGTDGHTYANVCALQAASRRALQLSGTPVRQLQKGACPLGLHQLSSPRYKFNFIADVVEKIAPAVVHIELFLRHPLFGRNVPLSSGSGFIMSEAGLIITNAHVVSSNSAAPGRQQLKVQLQNGDSYEATIKDIDKKSDIATIKIHPKKKLPVLLLGHSADLRPGEFVVAIGSPFALQNTVTTGIVSTAQREGRELGLRDSDMDYIQTDAIINYGNSGGPLVNLDGEVIGINTLKVTAGISFAIPSDRITRFLTEFQDKQIKDWKKRFIGIRMATITPSLVDALKASNPDFPEVSSGIYVAEVAPNSPSQRGGIQDGDIIVKVNGRPLVDSSELQEAVLTESPLLLEVRRGNDDLLFSIAPEVVM [R362A;E371A;Q389A]
